Experimental data as given in patent US20260001928A1 (CORTERIA PHARMACEUTICALS, priority 2022, published 2026).
*1 amine or outer side, *2 acyl side, *3 side chain or, on linkers, in order; H or OH if unused. Where no end group is shown, it is not given here. Side-chain parts run from the residue outwards. [ ]: non-standard residue; d: D form. The star is where a group is joined. C18 diacid = O=C(O)CCCCCCCCCCCCCCCCC(=O)*; C16 diacid = O=C(O)CCCCCCCCCCCCCCC(=O)*; γGlu = O=C(O)[C@H](CCC(=O)[*:2])N[*:1]; NMeI = CC[C@H](C)[C@H](NC)C(=O)O; αMeL = CC(C)C[C@](C)(N)C(=O)O; AEEA = NCCOCCOCC(=O)O; Aib = CC(C)(N)C(=O)O

T1: CRF1R receptor (UniProt P34998 24-415, limits assumed)
T1 sequence (looked up): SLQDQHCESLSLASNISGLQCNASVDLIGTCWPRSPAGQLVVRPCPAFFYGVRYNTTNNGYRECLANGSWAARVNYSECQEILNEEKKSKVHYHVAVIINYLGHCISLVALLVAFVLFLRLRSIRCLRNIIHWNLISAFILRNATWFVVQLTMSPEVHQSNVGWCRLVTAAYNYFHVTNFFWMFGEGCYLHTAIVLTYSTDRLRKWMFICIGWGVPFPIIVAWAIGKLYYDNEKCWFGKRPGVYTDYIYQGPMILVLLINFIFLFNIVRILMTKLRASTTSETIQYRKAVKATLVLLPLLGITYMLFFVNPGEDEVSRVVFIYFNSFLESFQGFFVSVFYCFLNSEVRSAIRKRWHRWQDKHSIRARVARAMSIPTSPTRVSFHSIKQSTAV


What was measured:
CRF1R receptor = biological target: T1, CRF1R receptor; assay: cell-based or functional assay
[1] = biological target: human corticotropin-releasing factor 2a (CRF2a receptor) (human), Q13324; assay: cell-based or functional assay
Chain of human corticotropin-releasing factor 2a (CRF2a receptor) (human), Q13324 (Q13324 20-411): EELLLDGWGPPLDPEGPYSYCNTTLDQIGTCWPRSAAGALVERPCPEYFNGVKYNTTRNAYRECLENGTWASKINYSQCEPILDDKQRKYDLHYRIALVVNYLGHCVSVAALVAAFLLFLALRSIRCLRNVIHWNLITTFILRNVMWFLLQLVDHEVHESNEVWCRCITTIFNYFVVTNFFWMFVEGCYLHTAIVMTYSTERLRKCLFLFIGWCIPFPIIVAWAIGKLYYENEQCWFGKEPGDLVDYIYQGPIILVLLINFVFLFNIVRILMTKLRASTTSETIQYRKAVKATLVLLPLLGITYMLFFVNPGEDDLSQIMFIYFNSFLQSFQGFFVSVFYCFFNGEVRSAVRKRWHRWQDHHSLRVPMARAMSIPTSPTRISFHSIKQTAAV

Binder	EC50 (CRF1R receptor) [nM]	Emax (% I) (CRF1R receptor) [%]	EC50 [nM] (cAMP) [1]
IVLSLD[dV]PIKLK([AEEA-AEEA-γGlu-C16 diacid])QILLKQERQKKQREQAEKNKQILEQV-NH2 [SEQ ID NO 148]	100	13	0.65
Ac-IVLSLD[dV]PIK[αMeL]K([γGlu-C16 diacid])KILLEQEKQKKQREQAETNVQILAQV-NH2 (SMILES CC[C@H](C)[C@H](NC(C)=O)C(=O)N[C@H](C(=O)N[C@@H](CC(C)C)C(=O)N[C@@H](CO)C(=O)N[C@@H](CC(C)C)C(=O)N[C@@H](CC(=O)O)C(=O)N[C@@H](C(=O)N1CCC[C@H]1C(=O)N[C@H](C(=O)N[C@@H](CCCCN)C(=O)N[C@@](C)(CC(C)C)C(=O)N[C@@H](CCCCNC(=O)CC[C@H](NC(=O)CCCCCCCCCCCCCCC(=O)O)C(=O)O)C(=O)N[C@@H](CCCCN)C(=O)N[C@H](C(=O)N[C@@H](CC(C)C)C(=O)N[C@@H](CC(C)C)C(=O)N[C@@H](CCC(=O)O)C(=O)N[C@@H](CCC(N)=O)C(=O)N[C@@H](CCC(=O)O)C(=O)N[C@@H](CCCCN)C(=O)N[C@@H](CCC(N)=O)C(=O)N[C@@H](CCCCN)C(=O)N[C@@H](CCCCN)C(=O)N[C@@H](CCC(N)=O)C(=O)N[C@@H](CCCNC(=N)N)C(=O)N[C@@H](CCC(=O)O)C(=O)N[C@@H](CCC(N)=O)C(=O)N[C@@H](C)C(=O)N[C@@H](CCC(=O)O)C(=O)N[C@H](C(=O)N[C@@H](CC(N)=O)C(=O)N[C@H](C(=O)N[C@@H](CCC(N)=O)C(=O)N[C@H](C(=O)N[C@@H](CC(C)C)C(=O)N[C@@H](C)C(=O)N[C@@H](CCC(N)=O)C(=O)N[C@H](C(N)=O)C(C)C)[C@@H](C)CC)C(C)C)[C@@H](C)O)[C@@H](C)CC)[C@@H](C)CC)C(C)C)C(C)C) [SEQ ID NO 50]		9	0.26
Ac-IVLSLD[dV]PIK[αMeL]K([γGlu-C16 diacid])KILLEQEKQKKQREQAETDKQILAQV-NH2 (SMILES CC[C@H](C)[C@H](NC(C)=O)C(=O)N[C@H](C(=O)N[C@@H](CC(C)C)C(=O)N[C@@H](CO)C(=O)N[C@@H](CC(C)C)C(=O)N[C@@H](CC(=O)O)C(=O)N[C@@H](C(=O)N1CCC[C@H]1C(=O)N[C@H](C(=O)N[C@@H](CCCCN)C(=O)N[C@@](C)(CC(C)C)C(=O)N[C@@H](CCCCNC(=O)CC[C@H](NC(=O)CCCCCCCCCCCCCCC(=O)O)C(=O)O)C(=O)N[C@@H](CCCCN)C(=O)N[C@H](C(=O)N[C@@H](CC(C)C)C(=O)N[C@@H](CC(C)C)C(=O)N[C@@H](CCC(=O)O)C(=O)N[C@@H](CCC(N)=O)C(=O)N[C@@H](CCC(=O)O)C(=O)N[C@@H](CCCCN)C(=O)N[C@@H](CCC(N)=O)C(=O)N[C@@H](CCCCN)C(=O)N[C@@H](CCCCN)C(=O)N[C@@H](CCC(N)=O)C(=O)N[C@@H](CCCNC(=N)N)C(=O)N[C@@H](CCC(=O)O)C(=O)N[C@@H](CCC(N)=O)C(=O)N[C@@H](C)C(=O)N[C@@H](CCC(=O)O)C(=O)N[C@H](C(=O)N[C@@H](CC(=O)O)C(=O)N[C@@H](CCCCN)C(=O)N[C@@H](CCC(N)=O)C(=O)N[C@H](C(=O)N[C@@H](CC(C)C)C(=O)N[C@@H](C)C(=O)N[C@@H](CCC(N)=O)C(=O)N[C@H](C(N)=O)C(C)C)[C@@H](C)CC)[C@@H](C)O)[C@@H](C)CC)[C@@H](C)CC)C(C)C)C(C)C) [SEQ ID NO 53]		5	8.05
Ac-VLSLD[dV]PIK[αMeL]K([γGlu-C16 diacid])KILLEQEKQKKQREQAETN[Aib]QILAQV-NH2 (SMILES CC[C@H](C)[C@H](NC(=O)[C@H](CCC(N)=O)NC(=O)C(C)(C)NC(=O)[C@H](CC(N)=O)NC(=O)[C@@H](NC(=O)[C@H](CCC(=O)O)NC(=O)[C@H](C)NC(=O)[C@H](CCC(N)=O)NC(=O)[C@H](CCC(=O)O)NC(=O)[C@H](CCCNC(=N)N)NC(=O)[C@H](CCC(N)=O)NC(=O)[C@H](CCCCN)NC(=O)[C@H](CCCCN)NC(=O)[C@H](CCC(N)=O)NC(=O)[C@H](CCCCN)NC(=O)[C@H](CCC(=O)O)NC(=O)[C@H](CCC(N)=O)NC(=O)[C@H](CCC(=O)O)NC(=O)[C@H](CC(C)C)NC(=O)[C@H](CC(C)C)NC(=O)[C@@H](NC(=O)[C@H](CCCCN)NC(=O)[C@H](CCCCNC(=O)CC[C@H](NC(=O)CCCCCCCCCCCCCCC(=O)O)C(=O)O)NC(=O)[C@](C)(CC(C)C)NC(=O)[C@H](CCCCN)NC(=O)[C@@H](NC(=O)[C@@H]1CCCN1C(=O)[C@H](NC(=O)[C@H](CC(=O)O)NC(=O)[C@H](CC(C)C)NC(=O)[C@H](CO)NC(=O)[C@H](CC(C)C)NC(=O)[C@@H](NC(C)=O)C(C)C)C(C)C)[C@@H](C)CC)[C@@H](C)CC)[C@@H](C)O)C(=O)N[C@@H](CC(C)C)C(=O)N[C@@H](C)C(=O)N[C@@H](CCC(N)=O)C(=O)N[C@H](C(N)=O)C(C)C) [SEQ ID NO 46]		6	0.7
[NMeI]VLSLD[dV]PIK[αMeL]K([γGlu-C16 diacid])KILLEQEKQKKQREQAETN[Aib]QILAQV-NH2 (N-terminus assumed; SMILES CC[C@H](C)[C@H](NC)C(=O)N[C@H](C(=O)N[C@@H](CC(C)C)C(=O)N[C@@H](CO)C(=O)N[C@@H](CC(C)C)C(=O)N[C@@H](CC(=O)O)C(=O)N[C@@H](C(=O)N1CCC[C@H]1C(=O)N[C@H](C(=O)N[C@@H](CCCCN)C(=O)N[C@@](C)(CC(C)C)C(=O)N[C@@H](CCCCNC(=O)CC[C@H](NC(=O)CCCCCCCCCCCCCCC(=O)O)C(=O)O)C(=O)N[C@@H](CCCCN)C(=O)N[C@H](C(=O)N[C@@H](CC(C)C)C(=O)N[C@@H](CC(C)C)C(=O)N[C@@H](CCC(=O)O)C(=O)N[C@@H](CCC(N)=O)C(=O)N[C@@H](CCC(=O)O)C(=O)N[C@@H](CCCCN)C(=O)N[C@@H](CCC(N)=O)C(=O)N[C@@H](CCCCN)C(=O)N[C@@H](CCCCN)C(=O)N[C@@H](CCC(N)=O)C(=O)N[C@@H](CCCNC(=N)N)C(=O)N[C@@H](CCC(=O)O)C(=O)N[C@@H](CCC(N)=O)C(=O)N[C@@H](C)C(=O)N[C@@H](CCC(=O)O)C(=O)N[C@H](C(=O)N[C@@H](CC(N)=O)C(=O)NC(C)(C)C(=O)N[C@@H](CCC(N)=O)C(=O)N[C@H](C(=O)N[C@@H](CC(C)C)C(=O)N[C@@H](C)C(=O)N[C@@H](CCC(N)=O)C(=O)N[C@H](C(N)=O)C(C)C)[C@@H](C)CC)[C@@H](C)O)[C@@H](C)CC)[C@@H](C)CC)C(C)C)C(C)C) [SEQ ID NO 65]		10	0.1
[NMeI]VLSLD[dV]PIK[αMeL]K([γGlu-C16 diacid])KILLEQEKQKKQREQAETNVQILAQV-NH2 (N-terminus assumed; SMILES CC[C@H](C)[C@H](NC)C(=O)N[C@H](C(=O)N[C@@H](CC(C)C)C(=O)N[C@@H](CO)C(=O)N[C@@H](CC(C)C)C(=O)N[C@@H](CC(=O)O)C(=O)N[C@@H](C(=O)N1CCC[C@H]1C(=O)N[C@H](C(=O)N[C@@H](CCCCN)C(=O)N[C@@](C)(CC(C)C)C(=O)N[C@@H](CCCCNC(=O)CC[C@H](NC(=O)CCCCCCCCCCCCCCC(=O)O)C(=O)O)C(=O)N[C@@H](CCCCN)C(=O)N[C@H](C(=O)N[C@@H](CC(C)C)C(=O)N[C@@H](CC(C)C)C(=O)N[C@@H](CCC(=O)O)C(=O)N[C@@H](CCC(N)=O)C(=O)N[C@@H](CCC(=O)O)C(=O)N[C@@H](CCCCN)C(=O)N[C@@H](CCC(N)=O)C(=O)N[C@@H](CCCCN)C(=O)N[C@@H](CCCCN)C(=O)N[C@@H](CCC(N)=O)C(=O)N[C@@H](CCCNC(=N)N)C(=O)N[C@@H](CCC(=O)O)C(=O)N[C@@H](CCC(N)=O)C(=O)N[C@@H](C)C(=O)N[C@@H](CCC(=O)O)C(=O)N[C@H](C(=O)N[C@@H](CC(N)=O)C(=O)N[C@H](C(=O)N[C@@H](CCC(N)=O)C(=O)N[C@H](C(=O)N[C@@H](CC(C)C)C(=O)N[C@@H](C)C(=O)N[C@@H](CCC(N)=O)C(=O)N[C@H](C(N)=O)C(C)C)[C@@H](C)CC)C(C)C)[C@@H](C)O)[C@@H](C)CC)[C@@H](C)CC)C(C)C)C(C)C) [SEQ ID NO 67]		8	0.34
Ac-IVLSLD[dV]PIK[αMeL]K([AEEA-AEEA-γGlu-C18 diacid])KILLEQEKQKKQREQAETN[Aib]QILAQV-NH2 (SMILES CC[C@H](C)[C@H](NC(C)=O)C(=O)N[C@H](C(=O)N[C@@H](CC(C)C)C(=O)N[C@@H](CO)C(=O)N[C@@H](CC(C)C)C(=O)N[C@@H](CC(=O)O)C(=O)N[C@@H](C(=O)N1CCC[C@H]1C(=O)N[C@H](C(=O)N[C@@H](CCCCN)C(=O)N[C@@](C)(CC(C)C)C(=O)N[C@@H](CCCCNC(=O)COCCOCCNC(=O)COCCOCCNC(=O)CC[C@H](NC(=O)CCCCCCCCCCCCCCCCC(=O)O)C(=O)O)C(=O)N[C@@H](CCCCN)C(=O)N[C@H](C(=O)N[C@@H](CC(C)C)C(=O)N[C@@H](CC(C)C)C(=O)N[C@@H](CCC(=O)O)C(=O)N[C@@H](CCC(N)=O)C(=O)N[C@@H](CCC(=O)O)C(=O)N[C@@H](CCCCN)C(=O)N[C@@H](CCC(N)=O)C(=O)N[C@@H](CCCCN)C(=O)N[C@@H](CCCCN)C(=O)N[C@@H](CCC(N)=O)C(=O)N[C@@H](CCCNC(=N)N)C(=O)N[C@@H](CCC(=O)O)C(=O)N[C@@H](CCC(N)=O)C(=O)N[C@@H](C)C(=O)N[C@@H](CCC(=O)O)C(=O)N[C@H](C(=O)N[C@@H](CC(N)=O)C(=O)NC(C)(C)C(=O)N[C@@H](CCC(N)=O)C(=O)N[C@H](C(=O)N[C@@H](CC(C)C)C(=O)N[C@@H](C)C(=O)N[C@@H](CCC(N)=O)C(=O)N[C@H](C(N)=O)C(C)C)[C@@H](C)CC)[C@@H](C)O)[C@@H](C)CC)[C@@H](C)CC)C(C)C)C(C)C) [SEQ ID NO 110]		9	0.3
